In paper PMC3386633:

Assays:
[1] = molecular target: HOL-18, 18 kDa chitotriose-binding lectin from Halichondria okadai (Halichondria okadai); experiment: SEC; gel permeation chromatography on Superdex 75 (1.0 x 32 cm), HPLC, 0.5 mL/min, 20 ug purified lectin, native conditions, calibrated with marker proteins
[2] = molecular target: porcine stomach mucin (porcine); experiment: SPR; PSM coupled to a CM5 chip (5800 RU), HOL-18 as analyte in HBS buffer, 20 uL/min, 25 °C, BIAcore 3000, 1:1 model, BIAevaluation 3.0; bound lectin removed with 200 mM D-GlcNAc
[3] = molecular target: HOL-18, 18 kDa chitotriose-binding lectin from Halichondria okadai (Halichondria okadai); experiment: SDS-PAGE after timed heat treatment; purified lectin in sample buffer (0.2% SDS, with or without 2% 2-mercaptoethanol) heated at 70 °C for 5-60 min; the 36 kDa dimer was retained up to 15 min and dissociated within 20-30 min
[4] = molecular target: HOL-18, 18 kDa chitotriose-binding lectin from Halichondria okadai (Halichondria okadai)

## HOL-18, 18 kDa chitotriose-binding lectin from Halichondria okadai (natural protein)
[1]
  stoichiometry N: 4
[2]
  Kd: 4.4 µM
  koff: 0.0061 s⁻¹
  kon: 1400 M⁻¹ s⁻¹
[3]
  stoichiometry N: 2

## bovine submaxillary mucin (natural protein)
[4]
  minimum inhibitory concentration of the hemagglutination of human type A erythrocytes by HOL-18 (16 HA units): 125 µg/mL

## porcine stomach mucin (natural protein)
[4]
  minimum inhibitory concentration of the hemagglutination of human type A erythrocytes by HOL-18 (16 HA units): 10 µg/mL

B1: fetuin (natural protein)
chain: IPLDPVAGYKEPACDDPDTEQAALAAVDYINKHLPRGYKHTLNQIDSVKVWPRRPTGEVYDIEIDTLETTCHVLDPTPLANCSVRQQTQHAVEGDCDIHVLKQDGQFSVLFTKCDSSPDSAEDVRKLCPDCPLLAPLNDSRVVHAVEVALATFNAESNGSYLQLVEISRAQFVPLPVSVSVEFAVAATDCIAKEVVDPTKCNLLAEKQYGFCKGSVIQKALGGEDVRVTCTLFQTQPVIPQPQPDGAEAEAPSAVPDAAGPTPSAAGPPVASVVVGPSVVAVPLPLHRAHYDLRHTFSGVASVESSSGEAFHVGKTPIVGQPSIPGGPVRLCPGRIRYFKI
modifications: O-linked oligosaccharides and sialyl N-acetyllactosamine (Neu5Acα2-3/6Galβ1-4GlcNAc) chains in complex-type N-linked glycans
[4]
  minimum inhibitory concentration of the hemagglutination of human type A erythrocytes by HOL-18 (16 HA units): 125 µg/mL
